# Read-outs that look alike come from different tables or passages of the source.
# What was measured:
# [1] = biological target: Human Enolase 241cit peptide as offered to human PBMCs (human)
# [2] = biological target: Human Enolase 241 wt peptide as offered to human PBMCs (human)
# [3] = biological target: Human Enolase 241cit peptide as offered to human PBMCs (human); remark: listed apart in the source
# [4] = biological target: Mouse Enolase 241-260 citrullinated peptide presented by HLA-DR4 (mouse; human)
substance,measurement,setting,value
PBMCs of healthy donor 1 (cells without a defined receptor),"Thymidine proliferation assay, proliferation index (proliferation index)",[1],28.6
same,"Thymidine proliferation assay, proliferation index (proliferation index)",[2],1.2
PBMCs of healthy donor 2 (cells without a defined receptor),"Thymidine proliferation assay, proliferation index (proliferation index)",[1],2.7
PBMCs of healthy donor 4 (cells without a defined receptor),"Thymidine proliferation assay, proliferation index (proliferation index)",[3],28
Splenocytes of HLA-DR4 transgenic mice immunised with a DNA construct encoding mouse enolase (cells without a defined receptor),IFNγ Elispot (/million splenocytes),[4],180
